# Source: article doi:10.1101/2025.01.09.632101
# Molecular target: DPEP1-Avi: porcine DPEP1 ectodomain (residues 17-385) with Strep and Avi tags, biotinylated (porcine (Sus scrofa)) (UniProt P22412)
# Assay: BLI
# UniProt P22412, sequence (P22412 17-385): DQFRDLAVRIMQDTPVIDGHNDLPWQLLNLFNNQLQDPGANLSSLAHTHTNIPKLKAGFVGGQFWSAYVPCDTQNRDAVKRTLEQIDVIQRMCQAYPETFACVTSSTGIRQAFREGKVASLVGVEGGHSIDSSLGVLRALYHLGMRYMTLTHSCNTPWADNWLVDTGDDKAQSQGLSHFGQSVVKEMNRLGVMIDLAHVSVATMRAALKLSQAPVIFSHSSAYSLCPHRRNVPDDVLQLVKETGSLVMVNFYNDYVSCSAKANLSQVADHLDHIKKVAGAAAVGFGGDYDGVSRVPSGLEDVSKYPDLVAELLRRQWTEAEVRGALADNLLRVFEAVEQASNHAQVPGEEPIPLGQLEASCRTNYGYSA
substance,measurement,value
"PHEV spike RBD (residues 327-605), from Expi293F cells, with His, Strep and Avi tags (domain or fragment)",Kd,1500 nM
